For series [1], the target named is HBcAg (Hepatitis B virus core protein, 21 kDa) (Hepatitis B virus) (UniProt P03146). Particulars: affinity qPCR; 7.6 nM HBcAg, 1 nM DNA.
Series [2] shares this target. Particulars: affinity qPCR on Ni-NTA plate; 0.1 nM aptamer, 0.1-5 nM protein; 20 mM Tris-HCl pH 7.6, 5 mM KCl, 100 mM NaCl, 5 mM MgCl2, 1 mM CaCl2, RT 1 h.

pKd: −log10 of the molar value.

HBcAg (Hepatitis B virus core protein, 21 kDa) (Hepatitis B virus), sequence (P03146 whole entry): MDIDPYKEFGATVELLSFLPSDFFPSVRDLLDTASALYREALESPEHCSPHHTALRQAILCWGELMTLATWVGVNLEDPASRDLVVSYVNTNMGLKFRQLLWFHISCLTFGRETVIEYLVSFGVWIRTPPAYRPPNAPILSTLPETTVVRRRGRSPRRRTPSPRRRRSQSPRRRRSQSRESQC

The sequence “AGCAGCACAGAGGTCAGATGACATCTAGAACCAACGGTTCTGTTTGATGAGAATTCGGCCCCTATGCGTGCTACCGTGAA [A-19]” displayed a binding signal in series [1] of 1.17 % bound.
The same measure, in the same setting: the figure for “AGCAGCACAGAGGTCAGATGAGGCCTGGTGATCGTGCCCAGGCCATATGAGCAAGGAACCCCTATGCGTGCTACCGTGAA [A-9]” is 1 % bound.
Sequence “AGCAGCACAGAGGTCAGATGGTTACATGCGCAGTAGCCGACGTACTCTGGTAAAAGGTAGCCTATGCGTGCTACCGTGAA [A-38]” showed a binding signal in series [1] of 7.2 % bound. This sequence showed a negative logarithm of the Kd (pKd) in series [2] of 9.80.
In the case of “AGCAGCACAGAGGTCAGATGTTGCATACGCCAAACAAGCATTGACAAGGTAACCCTGGGCCCTATGCGTGCTACCGTGAA [A-23]”, the binding signal in series [1] stood at 1.45 % bound.
Sequence “AGCAGCACAGAGGTCAGATGTTTCCGAGGGAGTGGAATTAGCAAGGTGGAAGTGTTTCTACCTATGCGTGCTACCGTGAA [A-18]” showed a binding signal in series [1] of 8.3 % bound. The sequence further gave a pKd in series [2] of 9.85.

(Values after US20140148356.)
